Data reported in US20110177064A1, “Compositions and Methods for Treatment of Ovarian Cancer” (priority 2010, published 2011).
Several values for one entry are separate records, joined by “and”; a condition that tells them apart may be missing. Equal entries are not always repeated.

Assays:
[1] = test system: OVCAR-3 human ovarian carcinoma xenografts; assay: Anti-tumor effect in established subcutaneous OVCAR-3 ovarian carcinoma xenografts; format: in vivo, SCID mice; parameters: key to activity (NCI standards): Percent T/C values less than or equal to 42% and/or LCK values of 0.5 or greater are considered active; percent T/C values less than 10% are considered highly active
Method: (§1) Mice were inoculated with human ovarian cancer cell lines and allowed to become established (average tumor size of about 100 mm^3) prior to treatment. Conjugate dosing is described based on DM1 concentration. Efficacy is reported as both the % of tumor growth for treated vs. control (% T/C) and log cell kill (LCK) determined from the tumor doubling time and the tumor growth delay due to the treatment.
The anti-tumor effect of IMGN901 was evaluated in an established subcutaneous xenograft model of ovarian carcinoma. SCID mice were inoculated with OVCAR-3 ovarian carcinoma cells (1×10^7 cells/animal) injected subcutaneously into the right flank. When the tumors reached about 100 mm^3 in size (24 days after tumor cell inoculation), the mice were randomly divided into three groups (6 animals per group). Mice were treated with the single agent IMGN901 at 6.5 mg/kg and 13 mg/kg, respectively, administered intravenously once weekly for three weeks (day 24, 31, […]). A control group of animals received PBS administered intravenously at the same schedule. Tumor growth was monitored by measuring tumor size twice per week. Tumor size was calculated with the formula: length×width×height×½.

[2] = test system: COLO 720E human ovarian carcinoma xenografts; assay: Dose-response anti-tumor activity in established subcutaneous COLO 720E xenografts; format: in vivo, SCID mice; parameters: key to activity (NCI standards): Percent T/C values less than or equal to 42% and/or LCK values of 0.5 or greater are considered active; percent T/C values less than 10% are considered highly active; details: for complete regressions (CR) / partial regressions (PR) / mice remaining tumor free at the end of the study: 6 mice; for mice remaining tumor free at the end of the study: 119 days
Method: as §1
The anti-tumor effect of IMGN901 was evaluated in an established subcutaneous xenograft model of ovarian carcinoma. SCID mice were inoculated with COLO 720E ovarian carcinoma cells (1×10^7 cells/animal) injected subcutaneously into the right flank. (The COLO 720E human ovarian adenocarcinoma cell line was obtained from the European Collection of Cell Cultures (ECACC, catalog no. 93072111).) When the tumors reached about 100 mm^3 in size (10 days after tumor cell inoculation), the mice were randomly divided into four groups (6 animals per group). Mice were treated with the single agent IMGN901 at 6, 12 and 24 mg/kg, respectively, administered intravenously once weekly for three weeks (day 10, 17 and 24). A control group of animals received PBS administered intravenously at the same schedule. Tumor growth was monitored by measuring tumor size twice per week. Tumor size was calculated with the formula: length×width×height×½.

[3] = test system: COLO 720E human ovarian carcinoma xenografts; assay: Combination therapy of established subcutaneous COLO 720E xenografts; format: in vivo, Athymic nude mice; parameters: key to activity (NCI standards): Percent T/C values less than or equal to 42% and/or LCK values of 0.5 or greater are considered active; percent T/C values less than 10% are considered highly active
Description: as §1
The anti-tumor effect of a combination of huN901-DM1 and paclitaxel plus carboplatin was evaluated in an established subcutaneous xenograft model of ovarian cancer. Athymic nude mice were inoculated with COLO 720E human ovarian carcinoma cells (1×10^7 cells/animal) injected subcutaneously into the right flank. When the tumors reached about 80 mm^3 in size (10 days after tumor cell inoculation), the mice were randomly divided into six groups (6 animals per group). Mice were treated with the single agent IMGN901 at a dose of 13 mg/kg once weekly for three weeks (day 10, 17 and 24 post tumor cell inoculation) administered intravenously. Two additional groups of mice were treated with the combination chemotherapy regimen paclitaxel/carboplatin at two dose levels: a high-dose group of paclitaxel (20 mg/kg iv, weekly for 3 weeks)/carboplatin (100 mg/kg ip, single injection) and a low-dose group of paclitaxel (10 mg/kg iv, weekly for 3 weeks)/carboplatin (100 mg/kg ip, single injection). Two additional groups were treated with the combination of IMGN901 and either high-dose or low-dose paclitaxel/carboplatin with the same doses and routes of administration as for individual treatments. Tumor growth was monitored by measuring tumor size twice per week. Tumor size was calculated with the formula: length×width×height×½.

[4] = test system: COLO 720E human ovarian carcinoma xenografts; assay: Low-dose IMGN901 combination therapy of established subcutaneous COLO 720E xenografts; format: in vivo, mice; details: single agent IMGN901 11.4 mg/kg qw×3
Method: as §1
The anti-tumor effect of reduced doses of IMGN901 and paclitaxel plus carboplatin was evaluated in established subcutaneous COLO 720E xenografts. When the tumors reached about 100 mm^3 in size (14 days after tumor cell inoculation), the mice were randomly divided into groups of 6 animals each based on tumor volume. Mice were treated with the single agent IMGN901 at a dose of 11.4 mg/kg (qw×3) or the chemotherapeutic combination paclitaxel/carboplatin at either a high-dose (paclitaxel 20 mg/kg, qw×3/carboplatin, 100 mg/kg ip, single injection) or a low-dose (paclitaxel 10 mg/kg, qw×3/carboplatin, 100 mg/kg ip, single injection).

[5] = IMGN901 13 mg/kg iv once weekly for three weeks
[6] = 24 mg/kg iv once weekly for three weeks
[7] = single-agent IMGN901 13 mg/kg iv once weekly for three weeks

B1: IMGN901 (conjugate, chains of the INN, looked up)
VH: QVQLVESGGGVVQPGRSLRLSCAASGFTFSSFGMHWVRQAPGKGLEWVAYISSGSFTIYYADSVKGRFTISRDNSKNTLYLQMNSLRAEDTAVYYCARMRKGYAMDYWGQGTLVTVSS
VL: DVVMTQSPLSLPVTLGQPASISCRSSQIIIHSDGNTYLEWFQQRPGQSPRRLIYKVSNRFSGVPDRFSGSGSGTDFTLKISRVEAEDVGVYYCFQGSHVPHTFGQGTKVEIK
modifications: mertansine (DM1) conjugate
- activity (NCI standards) ([1]; IMGN901 6.5 mg/kg iv once weekly for three weeks): inactive
- activity (NCI standards) [1, 5]: active
- tumor growth inhibition (T/C) [1, 5]: 21%
- activity (NCI standards) ([2]; 6 mg/kg iv once weekly for three weeks): inactive
- activity (NCI standards) ([2]; 12 mg/kg iv weekly for 3 weeks): active
- mice exhibiting tumor regressions ([2]; 12 mg/kg iv weekly for 3 weeks): Four of 6
- tumor growth inhibition value (T/C) ([2]; 12 mg/kg iv weekly for 3 weeks): 18%
- complete regressions (CR) ([2]; 12 mg/kg iv weekly for 3 weeks): 2
- partial regressions (PR) ([2]; 12 mg/kg iv weekly for 3 weeks): 4
- mice remaining tumor free at the end of the study ([2]; 12 mg/kg iv weekly for 3 weeks): one
- activity (NCI standards) [2, 6]: highly active (percent T/C values less than 10% are considered highly active)
- mice exhibiting tumor regressions [2, 6]: six
- tumor growth inhibition value (T/C) [2, 6]: 0%
- complete regressions (CR) [2, 6]: 6
- partial regressions (PR) [2, 6]: 6
- mice remaining tumor free at the end of the study [2, 6]: four
- T/C [3, 7]: 32%
- activity (NCI standards) [3, 7]: active
- complete regression [3, 7]: one of six
- partial tumor regressions [3, 7]: Two of six
- tumor-free survivors ([3]; single-agent IMGN901 13 mg/kg, end of study day 123): no tumor-free survivors
- Response [4]: inactive
- T/C [4]: 62%
- CR ([4]; 11.4 mg/kg): no partial (PR) or complete regressions (CR) and 0/6
- PR ([4]; 11.4 mg/kg): no partial (PR) or complete regressions (CR) and 1/6
